The target in the series is T1, MBP-CsTBH (TINY BRANCHED HAIR, HD-ZIP) (Cucumis sativus, UniProt A0A0A0LED8 1-240).
T1 sequence: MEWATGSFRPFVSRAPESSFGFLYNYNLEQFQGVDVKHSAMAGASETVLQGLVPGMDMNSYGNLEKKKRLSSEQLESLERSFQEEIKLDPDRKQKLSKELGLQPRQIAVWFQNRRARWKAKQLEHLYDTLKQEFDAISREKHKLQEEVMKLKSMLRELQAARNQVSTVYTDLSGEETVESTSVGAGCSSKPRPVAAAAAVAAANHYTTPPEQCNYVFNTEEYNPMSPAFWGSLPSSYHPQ
The series can be described thus: EMSA; EMSA kit (Beyotime GS009) reaction buffer, room temperature, 6% native PAGE; salt and pH not stated. The note with it: protein: recombinant; chain copies: 2; blunt. On the technique in general: Mobility shift assays separate free from complexed probe on a gel.

From paper PMC10400037, “Novel players in organogenesis and flavonoid biosynthesis in cucumber glandular trichomes” come the findings set out here.

B1: CsF3H promoter probe (dsDNA)
DNA 1: GATTTGAGAAAATTATTGGGCTGGATTGT
DNA 2: ACAATCCAGCCCAATAATTTTCTCAAATC
Consider B1, for which the binding result is listed as “binds”.

B2: CsFLS promoter probe (dsDNA)
DNA 1: AATTTAAAATAATTATTGGGATTTCAAAC
DNA 2: GTTTGAAATCCCAATAATTATTTTAAATT
Take B2: the binding result is listed as “binds”.

B3: Cs4CL promoter probe (dsDNA)
DNA 1: CTTCCAAATTAATTATTGTTTTATGCAAA
DNA 2: TTTGCATAAAACAATAATTAATTTGGAAG
As for B3, the binding result is reported as “binds”.
